# Target: H4K12ac-TAMRA peptide
# Test: fluorescence polarisation
# Conditions: 8 nM H4K12ac-TAMRA peptide; value read at the highest BD mut concentration shown, est. about 500-600 nM; parent: est. 80; read off a plot
# ATAD2^342-1390 WT, sequence (Q6PL18 342-1390 V1013A/Y1021A/I1074A, change not shown): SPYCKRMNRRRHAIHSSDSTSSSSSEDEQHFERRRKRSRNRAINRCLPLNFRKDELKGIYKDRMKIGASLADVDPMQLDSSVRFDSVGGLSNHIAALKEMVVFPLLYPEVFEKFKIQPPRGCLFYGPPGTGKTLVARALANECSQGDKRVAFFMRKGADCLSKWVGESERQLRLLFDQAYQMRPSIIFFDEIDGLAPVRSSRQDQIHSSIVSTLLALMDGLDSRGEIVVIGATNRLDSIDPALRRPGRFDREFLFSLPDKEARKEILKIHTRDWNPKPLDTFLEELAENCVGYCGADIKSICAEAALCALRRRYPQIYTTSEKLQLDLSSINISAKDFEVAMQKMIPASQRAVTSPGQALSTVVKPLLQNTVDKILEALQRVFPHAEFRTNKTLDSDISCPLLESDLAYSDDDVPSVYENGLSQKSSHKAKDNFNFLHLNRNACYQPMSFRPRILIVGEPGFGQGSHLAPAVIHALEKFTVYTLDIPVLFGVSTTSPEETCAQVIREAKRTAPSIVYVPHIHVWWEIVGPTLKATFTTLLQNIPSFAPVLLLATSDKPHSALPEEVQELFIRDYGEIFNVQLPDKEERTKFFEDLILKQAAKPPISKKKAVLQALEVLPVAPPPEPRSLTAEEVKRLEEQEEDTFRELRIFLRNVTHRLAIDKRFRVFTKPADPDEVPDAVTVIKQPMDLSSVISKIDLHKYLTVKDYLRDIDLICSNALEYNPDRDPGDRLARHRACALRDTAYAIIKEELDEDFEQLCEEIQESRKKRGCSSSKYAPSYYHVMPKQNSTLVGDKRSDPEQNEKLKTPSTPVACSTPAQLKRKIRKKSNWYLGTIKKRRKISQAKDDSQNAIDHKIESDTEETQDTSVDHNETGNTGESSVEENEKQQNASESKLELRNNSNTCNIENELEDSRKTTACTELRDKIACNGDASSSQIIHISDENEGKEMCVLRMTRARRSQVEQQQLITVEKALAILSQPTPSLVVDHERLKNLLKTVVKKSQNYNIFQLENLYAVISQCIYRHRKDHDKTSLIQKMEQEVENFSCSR
substance,measurement,value
ATAD2^342-1390 WT (from UniProt Q6PL18) BD mut,response,14 mP

# Reference: publication PMC5342555, “ATAD2 is an epigenetic reader of newly synthesized histone marks during DNA replication” (Oncotarget, 2016)
